# Assay results reported in US20240218079A1 (ASTRIA THERAPEUTICS, published 2024).
# Read-outs that look alike come from different tables or passages of the source.
# Columns and labels:
# human plasma kallikrein [1] = target: T1, human plasma kallikrein (human, UniProt P03952 20-390; P03952 391-638); assay: SPR, pH 7.4, 37° C.
# T1 construct: Active enzyme (Enzyme Research Labs is named for the immunogen); also called pkal; pKal
# human prekallikrein [2] = target: T2, human prekallikrein (human, UniProt P03952 20-638); assay: SPR, 37 C, 50 mM HEPES, 150 mM NaCl, 1.3 mM Ca++, 1 mg/ml BSA, 0.02% tween-20, pH 7.4
# T2 construct: Zymogen form
# human plasma kallikrein [3] = target: T1, human plasma kallikrein; assay: cell-based or functional assay
# human plasma kallikrein [4] = target: T1, human plasma kallikrein; assay: SPR, 37° C.; reference: human prekallikrein
# human plasma kallikrein [5] = target: T1, human plasma kallikrein; assay: cell-based or functional assay; remark: listed apart in the source
# human plasma kallikrein [6] = target: T1, human plasma kallikrein; assay: SPR, 37 C, 50 mM HEPES, 150 mM NaCl, 0.1 mM Ca++, 1 mg/ml BSA, 0.02% tween-20, pH 6.0
# human plasma kallikrein [7] = target: T1, human plasma kallikrein; assay: SPR, 37° C., pH 6 against pH 7.4
# [8] = target: T3, human FcRn (Sino Biological, Cat. No. CT009-H08H) (human, UniProt P55899 24-297; P61769 21-119); assay: SPR, Biacore T200, human FcRn on the chip, pH 6.0
# T3 construct: Coupled to the Biacore chip; also called hFcRn
# [9] = target: trypsin, human pancrease (Cat #16-19-032000, Athens Research and Technology Inc) (human); assay: cell-based or functional assay
# human plasma kallikrein [10] = target: T1, human plasma kallikrein; assay: cell-based or functional assay; remark: listed apart in the source
# human plasma kallikrein [11] = target: T1, human plasma kallikrein; assay: SPR, pH 6.0, 37° C.
# human plasma kallikrein [12] = target: T1, human plasma kallikrein; assay: cell-based or functional assay; remark: listed apart in the source
# rat plasma kallikrein = rat plasma kallikrein (rat, UniProt P14272 20-638, limits assumed); assay: cell-based or functional assay
# rabbit plasma kallikrein = rabbit plasma kallikrein (rabbit); assay: cell-based or functional assay
# [13] = target: cynomolgus monkey plasma kallikrein (cynomolgus monkey, UniProt P03952 20-638 (human entry), limits assumed); assay: cell-based or functional assay
# human plasma kallikrein [14] = target: T1, human plasma kallikrein; assay: cell-based or functional assay; remark: listed apart in the source
# human prekallikrein [15] = target: T2, human prekallikrein; assay: SPR, 37 C, 50 mM HEPES, 150 mM NaCl, 0.1 mM Ca++, 1 mg/ml BSA, 0.02% tween-20, pH 6.0
# human plasma kallikrein [16] = target: T1, human plasma kallikrein; assay: SPR, pH 6.0, 37° C.; pH 6.0, 37° C.
# [17] = target: T3, human FcRn (Sino Biological, Cat. No. …); assay: SPR, Biacore T200, human FcRn on the chip, pH 6.0; pH 6.0; hFcRn on the chip
# [18] = target: T3, human FcRn (Sino Biological, Cat. No. …)
# human prekallikrein [19] = target: T2, human prekallikrein; assay: SPR, 37 C, 50 mM HEPES, 150 mM NaCl, 1.3 mM Ca++, 1 mg/ml BSA, 0.02% tween-20, pH 7.4 (this table has no pH labels; upper row taken as pH 7.4 as in the labelled table beside it)
# human plasma kallikrein [20] = target: T1, human plasma kallikrein; assay: SPR, pH 7.4, 37° C.; pH 7.4, 37° C.
# human prekallikrein [21] = target: T2, human prekallikrein; assay: SPR, 37 C, 50 mM HEPES, 150 mM NaCl, 0.1 mM Ca++, 1 mg/ml BSA, 0.02% tween-20, pH 6.0 (this table has no pH labels; lower row taken as pH 6.0 as in the labelled table beside it)
# human plasma kallikrein [22] = target: T1, human plasma kallikrein; assay: SPR, 37 C, 50 mM HEPES, 150 mM NaCl, 1.3 mM Ca++, 1 mg/ml BSA, 0.02% tween-20, pH 7.4 (this table has no pH labels; upper row taken as pH 7.4 as in the labelled tables beside it)
# human plasma kallikrein [23] = target: T1, human plasma kallikrein; assay: SPR, 37 C, 50 mM HEPES, 150 mM NaCl, 0.1 mM Ca++, 1 mg/ml BSA, 0.02% tween-20, pH 6.0 (this table has no pH labels; lower row taken as pH 6.0 as in the labelled tables beside it)
# T1 sequence (P03952 20-390 S143N limits assumed, chain 1 of 2): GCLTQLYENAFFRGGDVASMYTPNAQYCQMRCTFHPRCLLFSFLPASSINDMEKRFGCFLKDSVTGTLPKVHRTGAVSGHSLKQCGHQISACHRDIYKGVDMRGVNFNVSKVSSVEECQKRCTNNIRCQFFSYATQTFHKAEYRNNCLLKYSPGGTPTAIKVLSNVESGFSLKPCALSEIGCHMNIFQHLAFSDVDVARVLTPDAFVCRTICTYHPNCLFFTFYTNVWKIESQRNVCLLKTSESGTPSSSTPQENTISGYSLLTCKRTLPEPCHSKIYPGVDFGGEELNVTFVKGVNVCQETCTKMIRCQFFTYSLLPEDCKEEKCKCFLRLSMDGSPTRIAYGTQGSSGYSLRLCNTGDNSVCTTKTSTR
# T1 sequence (P03952 391-638 limits assumed, chain 2 of 2): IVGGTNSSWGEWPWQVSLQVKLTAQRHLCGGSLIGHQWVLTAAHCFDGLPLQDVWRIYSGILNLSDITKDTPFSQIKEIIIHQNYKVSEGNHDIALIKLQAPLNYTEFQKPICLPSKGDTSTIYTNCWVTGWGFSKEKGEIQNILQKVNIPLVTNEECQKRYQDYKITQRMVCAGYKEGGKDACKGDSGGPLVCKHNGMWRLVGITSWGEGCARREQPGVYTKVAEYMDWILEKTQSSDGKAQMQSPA
# T3 sequence (P55899 24-297 limits assumed, chain 1 of 2): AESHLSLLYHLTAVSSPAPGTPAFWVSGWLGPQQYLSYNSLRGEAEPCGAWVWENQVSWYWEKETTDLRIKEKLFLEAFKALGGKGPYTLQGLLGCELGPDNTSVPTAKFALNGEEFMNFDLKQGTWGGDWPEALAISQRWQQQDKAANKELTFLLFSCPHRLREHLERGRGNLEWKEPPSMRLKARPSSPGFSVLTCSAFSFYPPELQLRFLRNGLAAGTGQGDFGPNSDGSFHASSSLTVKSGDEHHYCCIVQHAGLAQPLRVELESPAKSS
# T3 sequence (P61769 21-119 limits assumed, chain 2 of 2): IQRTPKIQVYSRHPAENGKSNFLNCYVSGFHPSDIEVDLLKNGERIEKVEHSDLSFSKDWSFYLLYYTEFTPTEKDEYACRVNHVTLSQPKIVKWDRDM
# T2 sequence (P03952 20-638 limits assumed): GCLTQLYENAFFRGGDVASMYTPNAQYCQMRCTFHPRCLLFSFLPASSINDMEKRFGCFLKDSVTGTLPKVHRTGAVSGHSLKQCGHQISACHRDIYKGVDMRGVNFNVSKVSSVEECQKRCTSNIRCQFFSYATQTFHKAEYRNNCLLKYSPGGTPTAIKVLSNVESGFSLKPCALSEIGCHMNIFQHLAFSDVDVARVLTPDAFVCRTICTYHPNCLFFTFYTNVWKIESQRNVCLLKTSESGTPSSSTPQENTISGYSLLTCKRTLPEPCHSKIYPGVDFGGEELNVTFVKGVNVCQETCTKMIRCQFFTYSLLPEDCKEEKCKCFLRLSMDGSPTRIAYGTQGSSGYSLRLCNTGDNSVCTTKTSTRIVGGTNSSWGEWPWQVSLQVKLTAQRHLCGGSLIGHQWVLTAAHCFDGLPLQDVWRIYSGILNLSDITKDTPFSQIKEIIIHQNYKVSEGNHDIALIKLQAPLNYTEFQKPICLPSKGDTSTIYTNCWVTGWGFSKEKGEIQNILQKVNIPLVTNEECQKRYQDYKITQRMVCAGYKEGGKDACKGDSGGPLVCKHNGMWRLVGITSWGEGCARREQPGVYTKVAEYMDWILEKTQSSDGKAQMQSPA
# rabbit plasma kallikrein (rabbit), sequence (chain, as listed by the source limits assumed): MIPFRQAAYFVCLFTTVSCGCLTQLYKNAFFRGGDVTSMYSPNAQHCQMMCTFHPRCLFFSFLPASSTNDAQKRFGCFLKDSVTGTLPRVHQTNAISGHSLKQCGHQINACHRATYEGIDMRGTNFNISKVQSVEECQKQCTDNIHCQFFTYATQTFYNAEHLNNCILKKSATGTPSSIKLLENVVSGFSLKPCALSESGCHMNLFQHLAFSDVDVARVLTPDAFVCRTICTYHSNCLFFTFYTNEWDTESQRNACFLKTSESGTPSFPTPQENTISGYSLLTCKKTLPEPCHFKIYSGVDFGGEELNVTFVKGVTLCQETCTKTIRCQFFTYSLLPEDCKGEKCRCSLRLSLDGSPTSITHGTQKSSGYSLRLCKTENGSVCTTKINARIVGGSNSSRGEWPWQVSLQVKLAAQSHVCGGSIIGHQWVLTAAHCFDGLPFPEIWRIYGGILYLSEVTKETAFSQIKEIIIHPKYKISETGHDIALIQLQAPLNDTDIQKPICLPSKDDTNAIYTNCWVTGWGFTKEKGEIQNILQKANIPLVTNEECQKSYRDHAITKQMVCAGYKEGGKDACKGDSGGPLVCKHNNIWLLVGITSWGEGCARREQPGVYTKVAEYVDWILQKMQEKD
# cynomolgus monkey plasma kallikrein, sequence (P03952 other isoform, or with tags, fused parts or gaps limits assumed): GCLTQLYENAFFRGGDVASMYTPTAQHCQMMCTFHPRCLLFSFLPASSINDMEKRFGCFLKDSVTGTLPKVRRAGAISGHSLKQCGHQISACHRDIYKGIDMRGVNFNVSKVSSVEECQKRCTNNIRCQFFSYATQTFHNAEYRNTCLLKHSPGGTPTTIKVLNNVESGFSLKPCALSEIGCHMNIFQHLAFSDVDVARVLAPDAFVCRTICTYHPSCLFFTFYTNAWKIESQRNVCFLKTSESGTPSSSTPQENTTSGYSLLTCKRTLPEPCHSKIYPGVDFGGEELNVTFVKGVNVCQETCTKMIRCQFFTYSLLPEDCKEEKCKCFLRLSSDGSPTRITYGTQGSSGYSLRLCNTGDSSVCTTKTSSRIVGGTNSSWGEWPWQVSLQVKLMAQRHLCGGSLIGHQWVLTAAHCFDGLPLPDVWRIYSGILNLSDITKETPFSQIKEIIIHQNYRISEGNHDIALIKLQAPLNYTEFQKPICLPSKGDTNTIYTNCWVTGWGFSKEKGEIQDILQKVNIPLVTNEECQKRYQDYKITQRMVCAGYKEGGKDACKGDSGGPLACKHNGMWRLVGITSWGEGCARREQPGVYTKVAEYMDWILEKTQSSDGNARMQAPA
# rat plasma kallikrein, sequence (P14272 20-638 limits assumed): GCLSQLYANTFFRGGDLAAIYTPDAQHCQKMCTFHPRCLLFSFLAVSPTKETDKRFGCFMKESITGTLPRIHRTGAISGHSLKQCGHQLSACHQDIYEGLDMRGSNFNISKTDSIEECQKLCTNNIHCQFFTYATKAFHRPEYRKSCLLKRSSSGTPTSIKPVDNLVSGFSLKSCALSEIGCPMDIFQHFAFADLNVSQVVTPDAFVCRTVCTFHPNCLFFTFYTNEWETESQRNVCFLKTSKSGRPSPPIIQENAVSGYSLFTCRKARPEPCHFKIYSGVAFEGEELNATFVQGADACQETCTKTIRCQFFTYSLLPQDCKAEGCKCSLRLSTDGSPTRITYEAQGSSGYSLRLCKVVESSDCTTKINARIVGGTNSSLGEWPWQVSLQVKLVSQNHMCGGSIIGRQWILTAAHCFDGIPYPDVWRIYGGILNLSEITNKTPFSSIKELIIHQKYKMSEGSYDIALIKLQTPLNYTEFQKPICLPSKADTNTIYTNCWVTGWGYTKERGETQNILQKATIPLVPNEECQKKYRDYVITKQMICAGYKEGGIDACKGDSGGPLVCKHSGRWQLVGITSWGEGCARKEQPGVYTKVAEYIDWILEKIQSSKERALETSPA
Binder,Kd (human plasma kallikrein [1]) [nM],koff (human plasma kallikrein [1]) [s⁻¹],kon (human plasma kallikrein [1]) [M⁻¹ s⁻¹],Kd (human prekallikrein [2]) [nM],koff (human prekallikrein [2]) [s⁻¹],kon (human prekallikrein [2]) [M⁻¹ s⁻¹],"IC50 (read off the curve), lower panel (human plasma kallikrein [3]) [nM]",fold higher affinity for plasma kallikrein than prekallikrein (human plasma kallikrein [4]) [fold],IC50 (read off the curve) (human plasma kallikrein [5]) [nM],koff (human plasma kallikrein [6]) [s⁻¹],kon (human plasma kallikrein [6]) [M⁻¹ s⁻¹],Kd [8] [nM],koff [8] [s⁻¹],kon [8] [M⁻¹ s⁻¹],"IC50 (read off the curve), lower panel, 10 nM pKal (human plasma kallikrein [10]) [M]",Kd (human plasma kallikrein [16]) [nM],also measured
DX-2930 (antibody) chain 1: not shown chain 2: DIQMTQSPSTLSASVGDRVTITCRASQSISSWLAWYQQKPGKAPKLLIYKASTLESGVPSRFSGSGSGTEFTLTISSLQPDDFATYYCQQYNTYWTFGQGTKVEIKRTVAAPSVFIFPPSDEQLKSGTASVVCLLNNFYPREAKVQWKVDNALQSGNSQESVTEQDSKDSTYSLSSTLTLSKADYEKHKVYACEVTHQGLSSPVTKSFNRGEC,18,0.00056,31000,144000,0.05,600,~30,> 1000,~0.2,0.0061,26000,193,0.167,866000,~3e-09,–,"fold reduction in KD at pH 6 versus pH 7.4 (human plasma kallikrein [7]): > 10 fold; IC50, trypsin inhibition assay (0.25 nM trypsin, PFR-AMC), Data 1 [9]: 243 nM; IC50, trypsin inhibition assay (0.25 nM trypsin, PFR-AMC), Data 2 [9]: 376 nM; Kd (human plasma kallikrein [11]): 236 nM"
"MAb1 (antibody, V domains shown) VH: QVQLQQSGAELVKPGASVKISCKASGYAFSSYWMNWVKQRPGEGLEWIGQIYPGDDDTNYNGKFKGKATLTVDKSSTTAYMQLSSLTSEDSAVYFCAGSLMVTTGAPFDYWGQGTTLTVSS VL: DIVMTQSHKFMSTSVGDRVSITCKASQDVGIAVAWYQQKPGQSPKFLIYWASTRHTGVPDRFTGSGSGTDFTLTIRNVQSEDLSDYFCQQYRSYPLTFGSGTKLELK",–,–,–,–,–,–,–,–,~1,–,–,–,–,–,~8e-09,–,"IC50 (read off the curve), upper panel, 1 nM pKal (human plasma kallikrein [10]): ~1e-09 M"
"MAb4-YTE (antibody, human IgG1, kappa, also called Mab-YTE) heavy: QVQLVQSGAEVKKPGSSVKVSCKASGYAFSSYWMNWVRQAPGQGLEWIGQIYPGDDDTNYNAKFQGRVTITVDKSTTTAYMELSSLRSEDTAVYFCAGSLMVTTGAPFDYWGQGTTVTVSSASTKGPSVFPLAPSSKSTSGGTAALGCLVKDYFPEPVTVSWNSGALTSGVHTFPAVLQSSGLYSLSSVVTVPSSSLGTQTYICNVNHKPSNTKVDKRVEPKSCDKTHTCPPCPAPELLGGPSVFLFPPKPKDTLYITREPEVTCVVVDVSHEDPEVKFNWYVDGVEVHNAKTKPREEQYNSTYRVVSVLTVLHQDWLNGKEYKCKVSNKALPAPIEKTISKAKGQPREPQVYTLPPSREEMTKNQVSLTCLVKGFYPSDIAVEWESNGQPENNYKTTPPVLDSDGSFFLYSKLTVDKSRWQQGNVFSCSVMHEALHNHYTQKSLSLSPG light: DIQMTQSPSSLSASVGDRVTITCKASQDVGIAVAWYQQKPGKAPKFLIYYASHRGWGVPDRFSGSGSGTDFTLTISSLQPEDFATYFCQQYRSYPLTFGQGTKLEIKRTVAAPSVFIFPPSDEQLKSGTASVVCLLNNFYPREAKVQWKVDNALQSGNSQESVTEQDSKDSTYSLSSTLTLSKADYEKHKVYACEVTHQGLSSPVTKSFNRGEC",1.1,7.3e-05,69000,1300,0.025,19000,~20,> 1000,–,7.7e-05,86000,150,0.0277,184000,–,0.9,"IC50, inhibition of pKal (1 nM) enzymatic activity on PFR-AMC (human plasma kallikrein [12]): 290 pM; IC50, inhibition of pKal (1 nM) enzymatic activity on PFR-AMC (rat plasma kallikrein): 167 pM; IC50, inhibition of pKal (1 nM) enzymatic activity on PFR-AMC (rabbit plasma kallikrein): 352 pM; IC50, inhibition of pKal (1 nM) enzymatic activity on PFR-AMC [13]: 223 pM; IC50 (read off the curve), upper panel, 30 nM pKal, 600 nM HMWK (human plasma kallikrein [3]): ~20 nM; fold higher potency than DX-2930, HMWK functional assay (human plasma kallikrein [14]): ~10 fold; Kd (human prekallikrein [15]): 670 nM; koff (human prekallikrein [15]): 0.022 s⁻¹; kon (human prekallikrein [15]): 34000 M⁻¹ s⁻¹"
"MAb4 (antibody, human IgG1, kappa, Full length human IgG1 kappa; also called unmodified MAb4; parental MAb4) heavy: not shown light: DIQMTQSPSSLSASVGDRVTITCKASQDVGIAVAWYQQKPGKAPKFLIYYASHRGWGVPDRFSGSGSGTDFTLTISSLQPEDFATYFCQQYRSYPLTFGQGTKLEIKRTVAAPSVFIFPPSDEQLKSGTASVVCLLNNFYPREAKVQWKVDNALQSGNSQESVTEQDSKDSTYSLSSTLTLSKADYEKHKVYACEVTHQGLSSPVTKSFNRGEC",–,–,–,–,–,–,~20,–,–,–,–,–,–,–,–,–,Kd [17]: 848 nM; koff [17]: 0.229 s⁻¹; kon [17]: 270000 M⁻¹ s⁻¹
"MAb4-LS (antibody, human IgG1, kappa, Human IgG1 kappa) heavy: not shown light: DIQMTQSPSSLSASVGDRVTITCKASQDVGIAVAWYQQKPGKAPKFLIYYASHRGWGVPDRFSGSGSGTDFTLTISSLQPEDFATYFCQQYRSYPLTFGQGTKLEIKRTVAAPSVFIFPPSDEQLKSGTASVVCLLNNFYPREAKVQWKVDNALQSGNSQESVTEQDSKDSTYSLSSTLTLSKADYEKHKVYACEVTHQGLSSPVTKSFNRGEC",–,–,–,–,–,–,~20,> 1000,–,–,–,–,–,–,–,1.2,Kd [18]: 105 nM; koff [18]: 0.031 s⁻¹; kon [18]: 296000 M⁻¹ s⁻¹; Kd (human prekallikrein [19]): 1300 nM; koff (human prekallikrein [19]): 0.024 s⁻¹; kon (human prekallikrein [19]): 19000 M⁻¹ s⁻¹; Kd (human plasma kallikrein [20]): 2.2 nM; Kd (human prekallikrein [21]): 670 nM; koff (human prekallikrein [21]): 0.023 s⁻¹; kon (human prekallikrein [21]): 34000 M⁻¹ s⁻¹; koff (human plasma kallikrein [22]): 8.6e-05 s⁻¹; kon (human plasma kallikrein [22]): 39000 M⁻¹ s⁻¹; koff (human plasma kallikrein [23]): 0.000101 s⁻¹; kon (human plasma kallikrein [23]): 83000 M⁻¹ s⁻¹
